According to article PMC7027753, “Interaction of N‐acetyl‐L‐glutamate kinase with the PII signal transducer in the non‐photosynthetic alga Polytomella parva: Co‐evolution towards a hetero‐oligomeric enzyme” (The Febs Journal, 2019):
Blank lines part the entries; values can stand above or below the molecule they belong to.

What was measured:
[1] = target: Polytomella parva PII protein (Polytomella parva); assay: SEC-MALS; Superose 6 Increase 10/300 GL; 10 mM Tris pH 7.8, 300 mM NaCl, 2 mM MgCl2, 0.02% NaN3, 2% glycerol; proteins alone or PII mixed in excess with NAGK (4 : 1 monomeric concentrations), with or without 5 mM glutamine; fractions checked by SDS/PAGE
[2] = target: Chlamydomonas reinhardtii NAGK protein (Chlamydomonas reinhardtii); assay: SPR; His6-NAGK immobilised on a Ni2+-loaded NTA chip (FC2), strep-tagged PII injected as analyte (50-1000 nM), 25 °C, HBS (10 mM HEPES, 150 mM NaCl, 2 mM MgCl2, 0.005% NP-40, pH 7.5), FC2-FC1; without effector molecules; Kd estimated from ΔRU
[3] = target: Polytomella parva N-acetyl-L-glutamate kinase (Polytomella parva) (UniProt A6XGV3); assay: as above
[4] = target: Chlamydomonas reinhardtii NAGK protein (Chlamydomonas reinhardtii); assay: SEC-MALS; Superose 6 Increase 10/300 GL; 10 mM Tris pH 7.8, 300 mM NaCl, 2 mM MgCl2, 0.02% NaN3, 2% glycerol; proteins alone or PII mixed in excess with NAGK (4 : 1 monomeric concentrations), with or without 5 mM glutamine; fractions checked by SDS/PAGE
[5] = target: T1, PpaPII-CrNAGK complex; assay: coupled pyruvate kinase / lactate dehydrogenase NADH assay, […] nm; assay type: biochemical, Chlamydomonas reinhardtii (NAGK); Polytomella parva (PII); conditions: 50 mM NAG, 5 mM ATP, 20 mM MgCl2, pH 7.5; with PpaPII, no Gln; allosteric site of NAGK; unit implied in the sentence
T1 construct: gene NAGK; heterologous two-species complex, mixed equimolar: His6-CrNAGK and PpaPII from residue 50 with C-terminal Strep tag; NAGK holds arginine, PII holds glutamine

[6] = target: T2, CrPII-PpaNAGK complex (Polytomella parva, UniProt A0A2K3DLS9+A6XGV3); assay: as above; assay type: biochemical
T2 construct: heterologous two-species complex, mixed equimolar: His6-PpaNAGK from residue 41 and CrPII with C-terminal Strep tag; NAGK holds arginine, PII holds 2-oxoglutarate

[7] = target: T3, CrPII-CrNAGK (Chlamydomonas reinhardtii, UniProt A8HPI1); assay: as above; assay type: biochemical; conditions: read-out: Arg-IC50
T3 construct: gene CHLRE_01g015000v5; His6-CrNAGK and CrPII with C-terminal Strep tag, mixed equimolar; E. coli expressed; with Nitrogen regulatory protein P-II, chloroplastic (PII signal transducer)

[8] = target: T4, CrNAGK (Chlamydomonas reinhardtii, UniProt A8HPI1); assay: as above; assay type: biochemical
T4 construct: gene CHLRE_01g015000v5; N-terminal His6 tag, E. coli LEMO-21(DE3), Ni-NTA; hexamer
T4 sequence (A8HPI1 44-340): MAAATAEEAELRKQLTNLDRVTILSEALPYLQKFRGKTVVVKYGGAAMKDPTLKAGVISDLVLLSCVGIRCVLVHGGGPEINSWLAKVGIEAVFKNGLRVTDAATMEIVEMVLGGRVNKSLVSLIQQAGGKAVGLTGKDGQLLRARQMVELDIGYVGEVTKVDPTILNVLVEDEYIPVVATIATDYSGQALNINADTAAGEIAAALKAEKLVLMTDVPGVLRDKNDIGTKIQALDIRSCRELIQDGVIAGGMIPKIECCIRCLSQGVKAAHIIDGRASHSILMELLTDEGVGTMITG

[9] = target: T1, PpaPII-CrNAGK complex; assay: as above; assay type: biochemical, Chlamydomonas reinhardtii (NAGK); Polytomella parva (PII); conditions: activation of complex inhibited by 0.12 mM arginine; 50 mM NAG, 5 mM ATP, pH 7.5; Gln site in PII Q-loop, allosteric
[10] = target: the molecule itself; assay: SEC-MALS; Superose 6 Increase 10/300 GL; 10 mM Tris pH 7.8, 300 mM NaCl, 2 mM MgCl2, 0.02% NaN3, 2% glycerol; proteins alone or PII mixed in excess with NAGK (4 : 1 monomeric concentrations), with or without 5 mM glutamine; fractions checked by SDS/PAGE
[11] = substrate: CC(=O)N[C@@H](CCC(=O)O)C(=O)O; assay: purified protein; assay type: biochemical, Polytomella parva; conditions: 5 mM ATP, 20 mM MgCl2, 50 mM KCl, 50 mM imidazole pH 7.5, no arginine, no PII

T2 sequence (A0A2K3DLS9 63-205, one chain of several): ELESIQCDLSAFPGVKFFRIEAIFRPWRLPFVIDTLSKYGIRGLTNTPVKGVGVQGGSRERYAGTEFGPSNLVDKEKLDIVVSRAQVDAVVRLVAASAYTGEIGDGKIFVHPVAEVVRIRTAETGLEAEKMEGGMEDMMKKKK

- stoichiometry N [1]: 3
- Kd [2]: 0.0863 µM
- Kd [3]: 0.0938 µM
- percent of PpaPII-PpaNAGK complex dissociation from the sensor chip at 330 sec after the end of the injection phase (RU at 110 sec taken as 100%) [3]: 60.7%
- percent of PpaPII-PpaNAGK complex dissociation from the sensor chip at 660 sec after the end of the injection phase (RU at 110 sec taken as 100%) [3]: 41.9%
Molecule: Polytomella parva PII protein (natural protein)

- stoichiometry N [4]: 6
Molecule: Chlamydomonas reinhardtii NAGK protein (enzyme)

Molecule: N=C(N)NCCC[C@H](N)C(=O)O [arginine]
- IC50 [5]: 70 ± 10 µM
- IC50 [6]: 680 ± 150 µM
- IC50 [7]: 250 ± 10 µM
- IC50 [8]: 120 ± 30 µM

- EC50 [9]: 1100 µM
Molecule: NC(=O)CC[C@H](N)C(=O)O [glutamine]

B1: Polytomella parva N-acetyl-L-glutamate kinase (enzyme, UniProt A6XGV3 41-329, looked up)
chain: TSDKKELTNLDRVTILSEALPYLQKFRGKTIVIKYGGAAMKDPTLKAGVITDLVLLNCVGIRTVLVHGGGPEINSWLSKVGIKPNFKNGLRVTDSATMDIVEMVLGGRVNKSLVSLIQQAGGRGVGLTGKDGQLLKARQMTELDIGHVGEVTKVDPTILNVMVNDGYIPVVATIASDPAGQALNINADTAAGEIAAALKAKKLVLMTDVPGVLRDKNDIKTKIHSLDIRGCRELIKDGIIAGGMIPKIECCIRCLAQGVDAAHIVDGRAKHSILMELLTDEGVGTMITG
notes: the full-length polypeptide has 329 amino acids; The discussion gives the transit peptide as 1-21, the results and methods as 1-40; also called PpaNAGK; NAGK; not shown: His6, N-terminal, kept
- stoichiometry N [10]: 6
- Km [11]: 2350 ± 220 µM
- kcat [11]: 211.5 ± 4.1 s⁻¹
